Measurements taken from patent publication US20230192860A1 (Bristol-Myers Squibb, published 2023).

B1: P1-061015 (antibody, V domains shown)
VH: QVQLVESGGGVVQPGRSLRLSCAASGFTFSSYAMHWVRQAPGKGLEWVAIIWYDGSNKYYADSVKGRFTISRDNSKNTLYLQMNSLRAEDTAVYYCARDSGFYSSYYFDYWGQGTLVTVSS
VL: EIVLTQSPATLSLSPGERATLSCRASQSVSSSYLAWYQQKPGQAPRLLIYDASNRATGIPARFSGSGSGTDFTLTISSLEPEDFATYYCQQYNSYPYTFGQGTKLEIK
notes: captured on a Protein A chip; also called parental antibody
B2: P1-077867 (P1-068748 H32Y) (antibody, V domains shown)
VH: QVQLVESGGGVVQPGRSLRLSCAASGFTFSHYAMHWVRQAPGKGLEWVAIIWYDGSNDDYADSVKGRFTISRDNSKNTLYLQMNSLRAEDTAVYYCARDSGFYDSYYFDYWGQGTLVTVSS
VL: EIVLTQSPATLSLSPGERATLSCRASQSVSSSYLAWYQQKPGQAPRLLIYDASNRATGIPARFSGSGSGTDFTLTISSLEPEDFATYYCQQYNSYPYTFGQGTKLEIK
notes: Reversion mutant of P1-068748 (Kabat names); captured on a Protein A chip
B3: P1-077873 (P1-068748 D100S) (antibody, V domains shown)
VH: QVQLVESGGGVVQPGRSLRLSCAASGFTFSHHAMHWVRQAPGKGLEWVAIIWYDGSNDDYADSVKGRFTISRDNSKNTLYLQMNSLRAEDTAVYYCARDSGFYSSYYFDYWGQGTLVTVSS
VL: EIVLTQSPATLSLSPGERATLSCRASQSVSSSYLAWYQQKPGQAPRLLIYDASNRATGIPARFSGSGSGTDFTLTISSLEPEDFATYYCQQYNSYPYTFGQGTKLEIK
notes: as for B2
B4: P1-077869 (P1-068748 D57K) (antibody, V domains shown)
VH: QVQLVESGGGVVQPGRSLRLSCAASGFTFSHHAMHWVRQAPGKGLEWVAIIWYDGSNKDYADSVKGRFTISRDNSKNTLYLQMNSLRAEDTAVYYCARDSGFYDSYYFDYWGQGTLVTVSS
VL: EIVLTQSPATLSLSPGERATLSCRASQSVSSSYLAWYQQKPGQAPRLLIYDASNRATGIPARFSGSGSGTDFTLTISSLEPEDFATYYCQQYNSYPYTFGQGTKLEIK
notes: as for B2
B5: P1-077875 (P1-068748 H31S H32Y) (antibody, V domains shown)
VH: QVQLVESGGGVVQPGRSLRLSCAASGFTFSSYAMHWVRQAPGKGLEWVAIIWYDGSNDDYADSVKGRFTISRDNSKNTLYLQMNSLRAEDTAVYYCARDSGFYDSYYFDYWGQGTLVTVSS
VL: EIVLTQSPATLSLSPGERATLSCRASQSVSSSYLAWYQQKPGQAPRLLIYDASNRATGIPARFSGSGSGTDFTLTISSLEPEDFATYYCQQYNSYPYTFGQGTKLEIK
notes: as for B2
B6: P1-077865 (P1-068748 H31S) (antibody, V domains shown)
VH: QVQLVESGGGVVQPGRSLRLSCAASGFTFSSHAMHWVRQAPGKGLEWVAIIWYDGSNDDYADSVKGRFTISRDNSKNTLYLQMNSLRAEDTAVYYCARDSGFYDSYYFDYWGQGTLVTVSS
VL: EIVLTQSPATLSLSPGERATLSCRASQSVSSSYLAWYQQKPGQAPRLLIYDASNRATGIPARFSGSGSGTDFTLTISSLEPEDFATYYCQQYNSYPYTFGQGTKLEIK
notes: as for B2
B7: P1-068748 (antibody, V domains shown)
VH: QVQLVESGGGVVQPGRSLRLSCAASGFTFSHHAMHWVRQAPGKGLEWVAIIWYDGSNDDYADSVKGRFTISRDNSKNTLYLQMNSLRAEDTAVYYCARDSGFYDSYYFDYWGQGTLVTVSS
VL: EIVLTQSPATLSLSPGERATLSCRASQSVSSSYLAWYQQKPGQAPRLLIYDASNRATGIPARFSGSGSGTDFTLTISSLEPEDFATYYCQQYNSYPYTFGQGTKLEIK
notes: captured on a Protein A chip

Experiments:
[1] = target: T1, monovalent hVISTA-ECD with polyhistidine tail (SEQ ID NO: 325) (human, UniProt Q9H7M9 33-193); assay: SPR, mAb captured on Protein A chip, hVISTA injected, PBST pH 7.4, 37 C
T1 construct: also called hVISTA-ECD 6-His tag; human VISTA
T1 sequence (Q9H7M9 other isoform, or with tags, fused parts or gaps limits assumed): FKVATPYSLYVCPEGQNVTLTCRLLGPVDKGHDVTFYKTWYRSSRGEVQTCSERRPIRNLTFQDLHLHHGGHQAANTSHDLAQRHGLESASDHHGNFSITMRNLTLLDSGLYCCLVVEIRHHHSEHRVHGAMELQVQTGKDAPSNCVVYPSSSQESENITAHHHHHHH

[2] = target: T1, monovalent hVISTA-ECD with …; assay: SPR, mAb captured on Protein A chip, hVISTA injected, PBST pH 6.0, 37 C

Binder	Kd [1]	koff [1]	kon [1]	Kd [2]	koff [2]	kon [2]
B1	6.4 nM	0.0022 s⁻¹	340000 M⁻¹ s⁻¹	1.9 nM	0.0016 s⁻¹	830000 M⁻¹ s⁻¹
B2	230 nM	0.026 s⁻¹	120000 M⁻¹ s⁻¹	2.2 nM	0.0029 s⁻¹	1.3e+06 M⁻¹ s⁻¹
B3	3.6 nM	0.003 s⁻¹	850000 M⁻¹ s⁻¹	0.71 nM	0.0012 s⁻¹	1.8e+06 M⁻¹ s⁻¹
B4	980 nM	0.027 s⁻¹	28000 M⁻¹ s⁻¹	15 nM	0.0026 s⁻¹	170000 M⁻¹ s⁻¹
B5	130 nM	0.021 s⁻¹	160000 M⁻¹ s⁻¹	0.94 nM	0.0018 s⁻¹	1.9e+06 M⁻¹ s⁻¹
B6	410 nM	0.028 s⁻¹	69000 M⁻¹ s⁻¹	5.2 nM	0.0028 s⁻¹	540000 M⁻¹ s⁻¹
B7	600 nM	0.032 s⁻¹	54000 M⁻¹ s⁻¹	11 nM	0.0035 s⁻¹	310000 M⁻¹ s⁻¹
